{"source": "paper PMC6803667", "about": "(Scientific Reports, 2019)", "binders": {"B1": {"name": "HTLV1 Late domain peptide (peptide)", "peptide": "SDPQIPPPYVEP"}, "B2": {"name": "Rabies Late domain peptide (peptide)", "peptide": "DLWLPPPEYVPL"}, "B3": {"name": "Marburg Late domain peptide (peptide)", "peptide": "MQYLNPPPYADH"}, "B4": {"name": "Ebola Late domain peptide (peptide)", "peptide": "ILPTAPPEYMEA"}, "B5": {"name": "p53bp2 human peptide (peptide)", "peptide": "Ac-EYPPYPPPPYPSG-NH2"}, "B6": {"name": "HTLV1ter Late domain peptide (peptide)", "peptide": "Ac-PPPYVEPTAP-NH2", "notes": "source: synthetic peptide, bought: SynBioSci Corporation"}}, "conditions_in_all_cases": "both partners purified", "key": {"[1]": {"biological_target": "T1, third WW domain of human NEDD4 (hNEDD4-WW3), unlabelled (human, UniProt P46934 834-878)", "T1 construct": "not shown: GST, N-terminal, cleaved; His tag, N-terminal, cleaved", "T1 sequence (P46934 834-878)": "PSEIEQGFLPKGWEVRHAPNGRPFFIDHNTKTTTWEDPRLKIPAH", "assay": "ITC"}, "[2]": {"biological_target": "T2, first WW domain of human YAP2 (YAP-WW1) (human, UniProt P46937-2 165-209)", "T2 construct": "also called hYAP-WW1; not shown: GST, N-terminal, cleaved; His tag, N-terminal, cleaved", "T2 sequence (P46937 165-209)": "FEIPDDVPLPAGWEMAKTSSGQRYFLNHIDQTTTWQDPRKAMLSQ", "assay": "other fluorescence titration; tryptophan fluorescence of the WW domain (20 uM), excitation 298 nm, centre of spectral mass against peptide concentration, one to one model; 20 mM sodium phosphate pH 7.0, 25 °C"}, "[3]": {"biological_target": "T3, second WW domain of human YAP2 (YAP-WW2) (human, UniProt P46937-2 228-271)", "T3 construct": "also called hYAP-WW2; not shown: GST, N-terminal, cleaved; His tag, N-terminal, cleaved", "T3 sequence (P46937 228-271)": "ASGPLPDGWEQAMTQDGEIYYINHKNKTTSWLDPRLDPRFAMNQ", "assay": "other fluorescence titration; tryptophan fluorescence of the WW domain (20 uM), excitation 298 nm, centre of spectral mass against peptide concentration, one to one model; 20 mM sodium phosphate pH 7.0, 25 °C"}, "[4]": {"biological_target": "T2, first WW domain of human YAP2 (YAP-WW1)", "assay": "ITC"}, "[5]": {"biological_target": "T2, first WW domain of human YAP2 (YAP-WW1)", "assay": "other fluorescence titration"}, "[6]": {"biological_target": "T3, second WW domain of human YAP2 (YAP-WW2)", "assay": "other fluorescence titration"}, "[7]": {"biological_target": "T3, second WW domain of human YAP2 (YAP-WW2)", "assay": "ITC"}}, "note": "Several values for one entry are separate records, joined by “and”; a condition that tells them apart may be missing. Equal entries are not always repeated.", "data": [{"binder": "B1", "values": [{"measurement": "Kd", "setting": "[1]", "result": "61 ± 1", "unit": "µM"}, {"measurement": "dH", "setting": "[1]", "result": "-16.3 ± 0.143", "unit": "kcal/mol"}, {"measurement": "Kd", "setting": "[2]", "result": "308 ± 4", "unit": "µM"}, {"measurement": "Kd", "setting": "[3]", "result": "260 ± 40", "unit": "µM"}]}, {"binder": "B2", "values": [{"measurement": "Kd", "setting": "[1]", "result": "51 ± 1", "unit": "µM"}, {"measurement": "dH", "setting": "[1]", "result": "-15.7 ± 0.191", "unit": "kcal/mol"}, {"measurement": "Kd", "setting": "[4]", "result": "181 ± 5", "unit": "µM"}, {"measurement": "dH", "setting": "[4]", "result": "-15.2 ± 0.215", "unit": "kcal/mol"}]}, {"binder": "B3", "values": [{"measurement": "Kd", "setting": "[1]", "result": "51 ± 1", "unit": "µM"}, {"measurement": "dH", "setting": "[1]", "result": "-17.5 ± 0.167", "unit": "kcal/mol"}, {"measurement": "Kd", "setting": "[5]", "result": "67 ± 4", "unit": "µM"}, {"measurement": "Kd", "setting": "[6]", "result": "17 ± 1", "unit": "µM"}]}, {"binder": "B4", "values": [{"measurement": "Kd", "setting": "[1]", "result": "147 ± 4", "unit": "µM"}, {"measurement": "dH", "setting": "[1]", "result": "-12.1 ± 0.167", "unit": "kcal/mol"}, {"measurement": "Kd", "setting": "[5]", "result": "750 ± 10", "unit": "µM"}, {"measurement": "Kd", "setting": "[6]", "result": "560 ± 30", "unit": "µM"}]}, {"binder": "B5", "values": [{"measurement": "Kd", "setting": "[4]", "result": "3 µM and 1.1 µM and 1.8 µM"}, {"measurement": "dH", "setting": "[4]", "result": "-14.6 kcal/mol and -15.9 kcal/mol and -13.1 kcal/mol"}, {"measurement": "Kd", "setting": "[7]", "result": "12 ± 0.6", "unit": "µM"}, {"measurement": "dH", "setting": "[7]", "result": "-13.6 ± 0.239", "unit": "kcal/mol"}]}, {"binder": "B6", "values": [{"measurement": "Kd", "setting": "[1]", "result": "178 ± 3", "unit": "µM"}, {"measurement": "dH", "setting": "[1]", "result": "-17.7 ± 0.191", "unit": "kcal/mol"}]}]}
